# Laboratory results taken from PMC1635299.
# B1: Msx2 promoter Dlx2 site probe (dsDNA)
# DNA 1: GATCCGGGTAGAGATTAGTTGAATATCCCTTGGGGATC
# DNA 2: GATCCCCAAGGGATATTCAACTAATCTCTACCCGGATC
# Experiments:
# Msx2 = Msx2 (UniProt Q03358 1-267); assay: EMSA
# Dlx2 = Dlx2 (UniProt P40764 1-332); assay: EMSA
# Dlx2, sequence (P40764 whole entry): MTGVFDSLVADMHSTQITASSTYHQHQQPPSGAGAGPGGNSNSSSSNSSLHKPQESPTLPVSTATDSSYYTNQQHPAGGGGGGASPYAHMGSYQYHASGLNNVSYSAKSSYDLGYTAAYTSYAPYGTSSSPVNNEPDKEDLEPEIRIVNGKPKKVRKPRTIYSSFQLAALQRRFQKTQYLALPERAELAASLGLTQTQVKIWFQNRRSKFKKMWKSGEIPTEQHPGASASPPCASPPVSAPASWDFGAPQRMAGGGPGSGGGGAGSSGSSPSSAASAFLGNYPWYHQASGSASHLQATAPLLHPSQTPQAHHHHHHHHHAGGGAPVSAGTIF
# Msx2, sequence (Q03358 whole entry): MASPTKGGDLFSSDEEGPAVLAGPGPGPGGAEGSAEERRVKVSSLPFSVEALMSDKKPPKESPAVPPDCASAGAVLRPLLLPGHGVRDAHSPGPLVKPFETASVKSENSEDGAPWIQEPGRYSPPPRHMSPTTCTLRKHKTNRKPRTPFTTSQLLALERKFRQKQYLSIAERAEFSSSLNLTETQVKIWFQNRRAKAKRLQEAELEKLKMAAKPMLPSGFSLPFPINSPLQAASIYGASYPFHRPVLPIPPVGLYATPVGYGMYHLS
binder,measurement,setting,value
B1,binding result,Msx2,binds
same,binding result,Dlx2,binds
